# Test system: MS2 coat protein
# Experiment: apparent KD of MS2 coat protein; designed switch direction (-1 OFF switch, 1 ON switch): -1; higher = weaker reporter binding
# How it was run: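 Designed RNA switches with common flanks were made on Illumina chips by stalled E. coli RNA polymerase. Titration with SNAP-549-labelled MS2 coat protein doubled from 0.7 or 1.5 nM up to 3 µM. Apparent KD is each design's median over clusters after curve-fitting normalised fluorescence.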
# [1] = input ligand: microRNA oligo, concentration not stated
# [2] = Eterna round: R95, input ligand: microRNA oligo, concentration not stated
# [3] = Eterna round: R95, input ligand: FMN 200 uM
# [4] = Eterna round: R95, input ligand: none
Sequence,apparent KD of MS2 coat protein (input ligand: FMN 200 uM),apparent KD of MS2 coat protein (input ligand: none),apparent KD of MS2 coat protein [2],also measured
"UUUACAAGCUAUAGAUCCCACAUGAGGAUCACCCAUGUUGCUGCCAACGGUAGCUUUUUAUGGUUUGCUCGUCUUAU [JL TOV1 3.35] (Eterna round: R97, puzzle: Sensor, turn-off variant 1)",443 nM,1860 nM,,
"UUUACAAGCUUUAGAUCCCACAUGAGGAUCACCCAUGUUGCUGCCGUGAGGUAGCUUUUAACUAAUGCUCGUCUUAU [JL TOV1 3.41] (Eterna round: R97, puzzle: Sensor, turn-off variant 1)",103 nM,124 nM,,
"UUUACCAGAGGAUAUGCGAAUAAAUAAAACUUUUUUUUUUAACAUGAGGAUCACCCAUGUAGAAGGCUGCAUUU [Ex2 #29] (Eterna round: R97, puzzle: Exclusion 2)",25.5 nM,28.2 nM,,
"UUUAUACAUGAGGAUCACCCAUGUGAGGAUAUGCUUUAUUAUUAUUAUUAUUAUUAUUGCAGAAGGUACAUUAU [LRO-Excl01-14] (Eterna round: R97, puzzle: Exclusion 1)",35.7 nM,37.7 nM,,
"UUUAUAGUAGGAUAUACAUGAGGAUCACCCAUGUAGUAGGGAAGACCUUGGUGGGAACGUAGAAGGACUUGGAG [Eternabot (L2) Solution 44] (Eterna round: R97, puzzle: Exclusion 3)",73.3 nM,74.2 nM,,
"UUUAUAUAGUAAGGAUAUGUAUUAAUUUUAUCAACAGAAGGUACUGACAUGAGGAUCACCCAUGUUUUAGUGUGGGCAUGUAGU [JMF's solution 93] (Eterna round: R96, puzzle: Exclusion NG 1)",543 nM,536 nM,,apparent KD of MS2 coat protein [1]: 493 nM
"UUUAUGUCAGGAUAUACAUGAGGAUCACCCAUGUAUAUCUUAAAGUAUACAUGGGAAUGUAGAAGGGACGUCCU [LRO-Excl05-29-mod of Pseudoloop5 by Omei] (Eterna round: R97, puzzle: Exclusion 3)",31.3 nM,30.2 nM,,
"UUUAUGUGAGGAUAUGCGGGCGGGCGUGAAAAUGUUUGUUUGUAGAAGGUACAUGAGGAUCACCCAUGUAGUGG [-22, -21.6 kcal, 24% A] (Eterna round: R97, puzzle: Exclusion 4)",180 nM,57.2 nM,,
"UUUAUUUUGCAAGGAUAUGUUUAAUUUUAGUUUCCUUAUACAUGAGGAUCACCCAUGUUAUACUUACAGAAGGUGCAUAAUUUU [JR_ExcNG2_Sub037] (Eterna round: R96, puzzle: Exclusion NG 2)",,,,apparent KD of MS2 coat protein [1]: 68.7 nM
"UUUCCCGUUCAGGCUGGAAACAUGAGGAUCACCCAUGUUCAAUCGGUUCUGUUAGCUGCUCGUCUUUUACACUUUCC [Eternabot (L1) Solution 39] (Eterna round: R97, puzzle: Sensor, turn-off variant 1)",20.5 nM,20.3 nM,,
UUUCCCUGUGUGAGGAUAUACUUGUUUGGGUUUUUGUAGAAGGCACAUGAGGAUCACCCAUGUACUCUGUCCUG [JR_BME4_Sub022] (puzzle: Brourd's mod of Exclusion 4),,,22.1 nM,
"UUUGAUUGCACAGGAUAUUGUCAUUUGAGUUGUCAAGAAGGGUGUACAUGAGGAUCACCCAUGUAAUGGUUGCCUCGCUGACUU [JR_ExcNG1_Sub008] (Eterna round: R96, puzzle: Exclusion NG 1)",,,,apparent KD of MS2 coat protein [1]: 77.1 nM
"UUUGCAAGCUAAAGAUCCCACAUGAGGAUCACCCAUGUUGCUGCCGUGAGGUAGCAUUUAACUUUUGCUCGUCUUAU [JL TOV1 3.49] (Eterna round: R97, puzzle: Sensor, turn-off variant 1)",282 nM,300 nM,,
UUUGUACAUGAGGAUCACCCAUGUUAGGAUAUCUCGCCGUCGGCUUGCCGACGGUAUUAGAGAAGGGACAAGGG [JL Tixe mod 8] (puzzle: Exclusion 1),,,94.2 nM,
"UUUGUUUAUGUAGGAUAUGCCUGGCGUGCCUUCGCAGAAGGACAUGAGGAUCACCCAUGUAUUGCGGUCUGCGUUCAGAUCGCA [salish99_ExNG1_r4_031] (Eterna round: R96, puzzle: Exclusion NG 1)",72.6 nM,42.5 nM,,apparent KD of MS2 coat protein [1]: 30 nM
UUUUAACAUGAGGAUCACCCAUGUGAGGAUAUCGAAAUUUAUAUUAAUAUUAAUAUAACGAGAAGGCACAUUUU [JMF 23] (puzzle: Exclusion 1),,,47.2 nM,
UUUUAACAUGAGGAUCACCCAUGUGAGGAUAUCGAAAUUUAUAUUAAUAUUAAUAUUACGAGAAGGCACAUUUU [JMF 26] (puzzle: Exclusion 1),,,77 nM,
UUUUAACAUGAGGAUCACCCAUGUGAGGAUAUCGAAAUUUAUAUUAAUAUUAUUAUAUCGAGAAGGCACAUUUU [JMF 40] (puzzle: Exclusion 1),,,86.6 nM,
UUUUAACAUGAGGAUCACCCAUGUGAGGAUAUCGAAAUUUAUAUUAAUAUUAUUUUAACGAGAAGGCACAUUUU [JMF 47] (puzzle: Exclusion 1),,,67.2 nM,

Sequence,apparent KD of MS2 coat protein (input ligand: FMN 200 uM),apparent KD of MS2 coat protein (input ligand: none),apparent KD of MS2 coat protein [2],also measured
UUUUAACAUGAGGAUCACCCAUGUGAGGAUAUCGAAAUUUAUAUUAAUAUUUAUUAUACGAGAAGGCACAUUUU [JMF 62] (puzzle: Exclusion 1),,,77.5 nM,
UUUUAACAUGAGGAUCACCCAUGUGAGGAUAUCGAAAUUUAUAUUUAUAUUAAUAAAUCGAGAAGGCACAUUUU [JMF 76] (puzzle: Exclusion 1),,,119 nM,
UUUUAACAUGAGGAUCACCCAUGUGAGGAUAUCGAAAUUUAUAUUUAUAUUUAUAUUUCGAGAAGGCACAUUUU [JMF 97] (puzzle: Exclusion 1),,,131 nM,
UUUUAACAUGAGGAUCACCCAUGUGAGGAUAUCGAUAUUUUUAUUAAUAUUAAUAAAACGAGAAGGCACAUUUU [JMF 15] (puzzle: Exclusion 1),,,65.4 nM,
UUUUACAUAGGAUAUAGUUUCUUUUACAUGAGGAUCACCCAUGUUUCUCUUCUCUCUCUUCUAGAAGGAUGUUUCU [JR_E5_Sub013] (puzzle: Exclusion 5),,,33.5 nM,
UUUUAGCUAGGAUAUACAUUUUUUUUAUUAUCCUCAUUAUUACAUGAGGAUCACCCAUGUAGAAGGAGCAUUUU [My Design] (puzzle: Exclusion 2),,,219 nM,
UUUUAGGCAGGAUAUACAUUUUUUUUAUUAUCCUCAUUAUUACAUGAGGAUCACCCAUGUAGAAGGGCCAUUUU [My Design] (puzzle: Exclusion 2),,,38.5 nM,
"UUUUAGUCAGGAUAUACAUGAGGAUCACCCAUGUAAAAUUUUAAUUUAAUUUUAAGGUGUAGAAGGGACAAUAA [Ex3 #8] (Eterna round: R97, puzzle: Exclusion 3)",32.2 nM,31.3 nM,,
"UUUUGGCAUGUAGGAUAUGGGUCCGAUUAGGAUUUAGAAGGACAUGAGGAUCACCCAUGUGCCCUUACUUGGUCUUUUUUUUUU [EXclNG1-LROPPY18] (Eterna round: R96, puzzle: Exclusion NG 1)",52.3 nM,41.2 nM,,apparent KD of MS2 coat protein [1]: 19.2 nM
"UUUUUACAUGAGGAUCACCCAUGUGAGGAUAUGGAGCGCGACCGCGCGGUCGCGUACACCAGAAGGCGCAGGAA [1st #75] (Eterna round: R97, puzzle: Exclusion 1)",30.6 nM,24.9 nM,,
UUUUUACGAGGAUAUCGUUUUUUUCACAUGAGGAUCACCCAUGUUGUUUAUGUUGCGUUGCGAGAAGGCGUUUGUU [JR_E5_Sub063] (puzzle: Exclusion 5),,,24.2 nM,
"UUUUUAUAUGAAGGAUAUACUAAACAUGAGGAUCACCCAUGUGGUGUUGUGAGUGAGAGAGAUAAGUAGAAGGUCAAUUAUUUU [JMF's solution 4] (Eterna round: R96, puzzle: Exclusion NG 2)",348 nM,90.8 nM,,apparent KD of MS2 coat protein [1]: 62.6 nM
"UUUUUAUAUGAAGGAUAUACUUAACAUGAGGAUCACCCAUGUGGUGUUGUGAGUGAGUGAGUUUAGUAGAAGGUCAAGUAUUAU [JMF's solution 38] (Eterna round: R96, puzzle: Exclusion NG 2)",776 nM,464 nM,,apparent KD of MS2 coat protein [1]: 265 nM
"UUUUUCGGACAAGCUACGUACAUGAGGAUCACCCAUGUCGGUAGAUUUGAGUAGGUUUGGAUGGAAGCUCGUCUUAU [JR_SV3TOV1_Sub084] (puzzle: Sensor v3, turn-off variant 1)",,,53.5 nM,apparent KD of MS2 coat protein [3]: 40.9 nM; apparent KD of MS2 coat protein [4]: 53.2 nM
"UUUUUCUCAGGAUAUACAUGAGGAUCACCCAUGUAUAUUAAAAAUAAUACAUGGGAAUGUAGAAGGGAGCUCAU [Omei Ex3 Pseudoloop 9] (Eterna round: R97, puzzle: Exclusion 3)",141 nM,161 nM,,
"UUUUUGUCAGGAUAUGCAUGUUUUUUUUUUUUUUUUUUCAUGCAGAAGGGACAUGAGGAUCACCCAUGUAGUUU [Ex4 - 3 - 10] (Eterna round: R96, puzzle: Exclusion 4)",53.7 nM,63.2 nM,,apparent KD of MS2 coat protein [1]: 61.7 nM
UUUUUGUCAGGAUAUGCAUGUUUUUUUUUUUUUUUUUUCAUGCAGAAGGGACAUGAGGAUCACCCAUGUAGUUU [Ex4 - 3 - 10] (puzzle: Exclusion 4),,,23.4 nM,apparent KD of MS2 coat protein [3]: 34.3 nM; apparent KD of MS2 coat protein [4]: 37.9 nM
UUUUUGUGAGGAUAUCAGUAGUAAAAAAAUAAAAUUACUACUGAGAAGGCACAUGAGGAUCACCCAUGUUUUUU [salish99_ex4_r3_013] (puzzle: Exclusion 4),,,43.3 nM,
UUUUUGUGAGGAUAUCAGUAGUAAAUAAAUAAAAUUACUACUGAGAAGGCACAUGAGGAUCACCCAUGUUUUUU [Mat - Exclusion 4 - Mod of Salish - D68] (puzzle: Exclusion 4),,,41.8 nM,
